# Assay results published in publication PMC9391438, “Structures of L-BC virus and its open particle provide insight into Totivirus capsid assembly” (Communications Biology, 2022).
# B1: L-BC virus capsid protein (Saccharomyces cerevisiae virus L-BCLa) (natural protein)
# chain: MSSLLNSLLPEYFKPKTNLNINSSRVQYGFNARIDMQYEDDSGTRKGSRPNAFMSNTVAFIGNYEGIIVDDIPILDGLRADIFDTHGDLDMGLVEDALSKSTMIRRNVPTYTAYASELLYKRNLTSLFYNMLRLYYIKKWGSIKYEKDAIFYDNGHACLLNRQLFPKSRDASLESSLSLPEAEIAMLDPGLEFPEEDVPAILWHGRVSSRATCILGQACSEFAPLAPFSIAHYSPQLTRKLFVNAPAGIEPSSGRYTHEDVKDAITILVSANQAYTDFEAAYLMLAQTLVSPVPRTAEASAWFINAGMVNMPTLSCANGYYPALTNVNPYHRLDTWKDTLNHWVAYPDMLFYHSVAMIESCYVELGNVARVSDSDAINKYTFTELSVQGRPVMNRGIIVDLTLVAMRTGREISLPYPVSCGLTRTDALLQGTEIHVPVVVKDIDMPQYYNAIDKDVIEGQETVIKVKQLPPAMYPIYTYGINTTEFYSDHFEDQVQVEMAPIDNGKAVFNDARKFSKFMSIMRMMGNDVTATDLVTGRKVSNWADNSSGRFLYTDVKYEGQTAFLVDMDTVKARDHCWVSIVDPNGTMNLSYKMTNFRAAMFSRNKPLYMTGGSVRTIATGNYRDAAERLRAMDETLRLKPFKITEKLDFRVAAYAIPSLSGSNMPSLHHQEQLQISEVDAEPINPIGEDELPPDIE
# notes: Capsid protein of Saccharomyces cerevisiae virus L-BCLa (L-BC), as found in virus particles from yeast; genome NC_001641.1; the model has 1316 resolved residues for the two copies (A and B) of the icosahedral asymmetric unit; The same chain takes two conformations (A and B) in the capsid; no density for it was resolved; also called A subunit; B subunit
# Biological target: the molecule itself
# Test: cryo-EM structure; L-BC particles purified from yeast, vitrified in 20 mM Tris-HCl pH 7.5, 50 mM KCl, 10 mM MgCl2; empty particle 2.9 Å and virion 3.7 Å (icosahedral symmetry), open particle 10 Å (C5) and 12 Å (C1)
protein,measurement,value
B1,stoichiometry N,120
